Tests used:
Assay in all cases: cell-based or functional assay
[1] = molecular target: HIV-1 Env of isolate MGRM-C-025 (HIV-1)
[2] = molecular target: HIV-1 Env of isolate MGRM-C-027 (HIV-1)
[3] = molecular target: HIV-1 Env of isolate MGRM-C-014 (HIV-1)
[4] = molecular target: HIV-1 Env of isolate MGRM-C-024 (HIV-1)
[5] = molecular target: HIV-1 Env of isolate MGRM-C-019 (HIV-1)
[6] = molecular target: HIV-1 Env of isolate MGRM-C-023 (HIV-1)
[7] = molecular target: HIV-1 Env of isolate MGRM-C-017 (HIV-1)
[8] = molecular target: HIV-1 Env of isolate MGRM-C-015 (HIV-1)
[9] = molecular target: HIV-1 Env of isolate MGRM-C-022 (HIV-1)
[10] = molecular target: HIV-1 Env of isolate MGRM-C-026 (HIV-1)
[11] = molecular target: HIV-1 Env of isolate MGRM-C-020 (HIV-1)
[12] = molecular target: HIV-1 Env of isolate MGRM-C-028 (HIV-1)
[13] = molecular target: HIV-1 Env of isolate MG RM-D-029 (HIV-1)
[14] = molecular target: HIV-1 Env of pseudovirus MGRM-AE-007 (subtype AE) (HIV-1)
[15] = molecular target: HIV-1 Env of isolate MGRM-F1-017 (HIV-1)
[16] = molecular target: HIV-1 Env of pseudovirus MGRM-AG-008 (subtype AG) (HIV-1)
[17] = molecular target: HIV-1 Env of isolate MGRM-F1-008 (HIV-1)
[18] = molecular target: HIV-1 Env of isolate MGRM-F1-020 (HIV-1)
[19] = molecular target: HIV-1 Env of isolate MG RM-D-024 (HIV-1)
[20] = molecular target: HIV-1 Env of isolate MGRM-F1-015 (HIV-1)
[21] = molecular target: HIV-1 Env of isolate MG RM-D-021 (HIV-1)
[22] = molecular target: HIV-1 Env of isolate MGRM-F1-004 (HIV-1)
[23] = molecular target: HIV-1 Env of pseudovirus MGRM-AG-001 (subtype AG) (HIV-1)
[24] = molecular target: HIV-1 Env of isolate MGRM-F1-006 (HIV-1)
[25] = molecular target: HIV-1 Env of isolate MG RM-D-013 (HIV-1)
[26] = molecular target: HIV-1 Env of isolate MGRM-F1-021 (HIV-1)
[27] = molecular target: HIV-1 Env of isolate MG RM-D-014 (HIV-1)
[28] = molecular target: HIV-1 Env of pseudovirus MGRM-AE-008 (subtype AE) (HIV-1)
[29] = molecular target: HIV-1 Env of pseudovirus MGRM-AG-012 (subtype AG) (HIV-1)
[30] = molecular target: HIV-1 Env of pseudovirus MGRM-AG-006 (subtype AG) (HIV-1)
[31] = molecular target: HIV-1 Env of isolate MGRM-F1-023 (HIV-1)
[32] = molecular target: HIV-1 Env of isolate MGRM-F1-010 (HIV-1)
[33] = molecular target: HIV-1 Env of pseudovirus MGRM-AG-005 (subtype AG) (HIV-1)
[34] = molecular target: HIV-1 Env of isolate MG RM-D-028 (HIV-1)
[35] = molecular target: HIV-1 Env of pseudovirus MGRM-AG-013 (subtype AG) (HIV-1)
[36] = molecular target: HIV-1 Env of isolate MGRM-F1-022 (HIV-1)
[37] = molecular target: HIV-1 Env of isolate MGRM-F1-016 (HIV-1)
[38] = molecular target: HIV-1 Env of isolate MG RM-D-018 (HIV-1)
[39] = molecular target: HIV-1 Env of pseudovirus MGRM-AG-009 (subtype AG) (HIV-1)
[40] = molecular target: HIV-1 Env of isolate MGRM-F1-014 (HIV-1)
[41] = molecular target: HIV-1 Env of pseudovirus MGRM-AG-011 (subtype AG) (HIV-1)
[42] = molecular target: HIV-1 Env of isolate MG RM-D-020 (HIV-1)
[43] = molecular target: HIV-1 Env of isolate MG RM-D-026 (HIV-1)
[44] = molecular target: HIV-1 Env of isolate MG RM-D-022 (HIV-1)
[45] = molecular target: HIV-1 Env of isolate MG RM-D-019 (HIV-1)
[46] = molecular target: HIV-1 Env of isolate MG RM-D-011 (HIV-1)
[47] = molecular target: HIV-1 Env of isolate MG RM-D-012 (HIV-1)
[48] = molecular target: HIV-1 Env of isolate MGRM-F1-012 (HIV-1)
[49] = molecular target: HIV-1 Env of isolate MGRM-F1-013 (HIV-1)
[50] = molecular target: HIV-1 Env of isolate MG RM-D-016 (HIV-1)
[51] = molecular target: HIV-1 Env of pseudovirus MGRM-AG-002 (subtype AG) (HIV-1)
[52] = molecular target: HIV-1 Env of isolate MGRM-F1-018 (HIV-1)
[53] = molecular target: HIV-1 Env of pseudovirus MGRM-AG-003 (subtype AG) (HIV-1)

Chain of PGT-145 (antibody) (VH): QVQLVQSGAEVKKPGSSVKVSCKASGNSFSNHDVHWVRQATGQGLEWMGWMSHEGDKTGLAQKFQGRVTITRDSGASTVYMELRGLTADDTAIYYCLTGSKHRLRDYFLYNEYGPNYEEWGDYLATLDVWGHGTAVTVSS
Chain of PGT-145 (antibody) (VL): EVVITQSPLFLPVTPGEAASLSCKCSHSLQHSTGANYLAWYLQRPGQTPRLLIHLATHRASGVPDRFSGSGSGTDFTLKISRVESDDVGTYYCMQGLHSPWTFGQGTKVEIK
Chain of PGT-143 (antibody) (VH): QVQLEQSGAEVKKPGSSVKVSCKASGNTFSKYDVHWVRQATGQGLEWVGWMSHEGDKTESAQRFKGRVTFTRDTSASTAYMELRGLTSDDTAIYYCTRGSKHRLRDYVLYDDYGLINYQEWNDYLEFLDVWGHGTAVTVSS
Chain of PGT-143 (antibody) (VL): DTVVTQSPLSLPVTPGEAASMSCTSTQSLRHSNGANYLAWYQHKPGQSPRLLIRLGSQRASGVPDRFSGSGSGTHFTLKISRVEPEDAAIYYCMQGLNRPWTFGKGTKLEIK
Chain of PGT-144 (antibody) (VH): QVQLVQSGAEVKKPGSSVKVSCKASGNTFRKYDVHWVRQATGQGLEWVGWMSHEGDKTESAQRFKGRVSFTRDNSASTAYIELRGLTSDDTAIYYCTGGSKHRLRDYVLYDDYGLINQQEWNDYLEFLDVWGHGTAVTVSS
Chain of PGT-144 (antibody) (VL): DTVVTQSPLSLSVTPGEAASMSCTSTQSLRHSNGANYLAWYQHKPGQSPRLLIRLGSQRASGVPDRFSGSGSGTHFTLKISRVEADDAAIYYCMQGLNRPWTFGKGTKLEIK
Chain of PGT-142 (antibody) (VH): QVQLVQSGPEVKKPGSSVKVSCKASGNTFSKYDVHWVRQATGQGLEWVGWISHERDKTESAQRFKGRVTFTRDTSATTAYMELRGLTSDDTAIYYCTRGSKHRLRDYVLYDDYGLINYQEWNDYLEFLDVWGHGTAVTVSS
Chain of PGT-142 (antibody) (VL): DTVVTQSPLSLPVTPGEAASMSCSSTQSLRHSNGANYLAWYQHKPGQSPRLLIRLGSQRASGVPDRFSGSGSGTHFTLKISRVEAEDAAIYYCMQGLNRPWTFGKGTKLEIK

## PGT-142 (antibody)
[1]
  IC50 (µg/mL), pseudovirus neutralization: 0.183 µg/mL
[2]
  IC50 (µg/mL), pseudovirus neutralization: 0.792 µg/mL
[3]
  IC50 (µg/mL), pseudovirus neutralization: 6.02 µg/mL
[4]
  IC50 (µg/mL), pseudovirus neutralization: 0.03 µg/mL
[5]
  IC50 (µg/mL), pseudovirus neutralization: 0.003 µg/mL
[6]
  IC50 (µg/mL), pseudovirus neutralization: 0.087 µg/mL
[7]
  IC50 (µg/mL), pseudovirus neutralization: 1.11 µg/mL
[8]
  IC50 (µg/mL), pseudovirus neutralization: 0.038 µg/mL
[9]
  IC50 (µg/mL), pseudovirus neutralization: 0.086 µg/mL
[10]
  IC50 (µg/mL), pseudovirus neutralization: > 50 µg/mL
[11]
  IC50 (µg/mL), pseudovirus neutralization: 0.446 µg/mL
[12]
  IC50 (µg/mL), pseudovirus neutralization: 2.12 µg/mL

## PGT-143 (4980_N08) (antibody)
[13]
  IC50: 0.2 µg/mL
[14]
  IC50, pseudovirus neutralization: 13.6 µg/mL
[15]
  IC50: 26.3 µg/mL
[16]
  IC50, pseudovirus neutralization: 34 µg/mL
[17]
  IC50: 0.189 µg/mL
[18]
  IC50: 0.98 µg/mL
[19]
  IC50: > 50 µg/mL
[20]
  IC50: > 50 µg/mL
[21]
  IC50: > 50 µg/mL
[22]
  IC50: 0.036 µg/mL
[23]
  IC50, pseudovirus neutralization: 18.9 µg/mL
[24]
  IC50: 12.3 µg/mL
[25]
  IC50: 0.386 µg/mL
[26]
  IC50: > 50 µg/mL
[27]
  IC50: 0.009 µg/mL
[28]
  IC50, pseudovirus neutralization: 0.135 µg/mL
[29]
  IC50, pseudovirus neutralization: > 50 µg/mL
[30]
  IC50, pseudovirus neutralization: > 50 µg/mL
[31]
  IC50: 0.972 µg/mL
[32]
  IC50: > 50 µg/mL
[33]
  IC50, pseudovirus neutralization: 1.11 µg/mL
[34]
  IC50: > 50 µg/mL
[35]
  IC50, pseudovirus neutralization: > 50 µg/mL
[36]
  IC50: 0.082 µg/mL
[37]
  IC50: > 50 µg/mL
[38]
  IC50: > 50 µg/mL
[39]
  IC50, pseudovirus neutralization: > 50 µg/mL
[40]
  IC50: 0.001 µg/mL
[41]
  IC50, pseudovirus neutralization: 0.156 µg/mL
[42]
  IC50: > 50 µg/mL
[43]
  IC50: 44.6 µg/mL
[44]
  IC50: > 50 µg/mL
[45]
  IC50: 0.277 µg/mL
[46]
  IC50: > 50 µg/mL
[47]
  IC50: > 50 µg/mL
[48]
  IC50: > 50 µg/mL
[49]
  IC50: 0.013 µg/mL
[50]
  IC50: > 50 µg/mL
[51]
  IC50, pseudovirus neutralization: 0.076 µg/mL
[52]
  IC50: 0.701 µg/mL
[53]
  IC50, pseudovirus neutralization: > 50 µg/mL

## PGT-143 (antibody)
[1]
  IC50 (µg/mL), pseudovirus neutralization: 0.336 µg/mL
[2]
  IC50 (µg/mL), pseudovirus neutralization: 0.598 µg/mL
[3]
  IC50 (µg/mL), pseudovirus neutralization: 8.81 µg/mL
[4]
  IC50 (µg/mL), pseudovirus neutralization: 0.05 µg/mL
[5]
  IC50 (µg/mL), pseudovirus neutralization: 0.004 µg/mL
[6]
  IC50 (µg/mL), pseudovirus neutralization: 0.148 µg/mL
[7]
  IC50 (µg/mL), pseudovirus neutralization: 5.17 µg/mL
[8]
  IC50 (µg/mL), pseudovirus neutralization: 0.085 µg/mL
[9]
  IC50 (µg/mL), pseudovirus neutralization: 0.103 µg/mL
[10]
  IC50 (µg/mL), pseudovirus neutralization: > 50 µg/mL
[11]
  IC50 (µg/mL), pseudovirus neutralization: 0.797 µg/mL
[12]
  IC50 (µg/mL), pseudovirus neutralization: 12.4 µg/mL

## PGT-144 (antibody)
[1]
  IC50 (µg/mL), pseudovirus neutralization: 17.6 µg/mL
[2]
  IC50 (µg/mL), pseudovirus neutralization: > 50 µg/mL
[3]
  IC50 (µg/mL), pseudovirus neutralization: > 50 µg/mL
[4]
  IC50 (µg/mL), pseudovirus neutralization: 2.06 µg/mL
[5]
  IC50 (µg/mL), pseudovirus neutralization: 0.513 µg/mL
[6]
  IC50 (µg/mL), pseudovirus neutralization: 0.38 µg/mL
[7]
  IC50 (µg/mL), pseudovirus neutralization: 23 µg/mL
[8]
  IC50 (µg/mL), pseudovirus neutralization: 0.236 µg/mL
[9]
  IC50 (µg/mL), pseudovirus neutralization: 2.58 µg/mL
[10]
  IC50 (µg/mL), pseudovirus neutralization: > 50 µg/mL
[11]
  IC50 (µg/mL), pseudovirus neutralization: 1.29 µg/mL
[12]
  IC50 (µg/mL), pseudovirus neutralization: > 50 µg/mL

## PGT-145 (antibody)
[1]
  IC50 (µg/mL), pseudovirus neutralization: 0.044 µg/mL
[2]
  IC50 (µg/mL), pseudovirus neutralization: 0.095 µg/mL
[3]
  IC50 (µg/mL), pseudovirus neutralization: 5.82 µg/mL
[4]
  IC50 (µg/mL), pseudovirus neutralization: 0.174 µg/mL
[5]
  IC50 (µg/mL), pseudovirus neutralization: 0.005 µg/mL
[6]
  IC50 (µg/mL), pseudovirus neutralization: 0.201 µg/mL
[7]
  IC50 (µg/mL), pseudovirus neutralization: > 50 µg/mL
[8]
  IC50 (µg/mL), pseudovirus neutralization: 0.12 µg/mL
[9]
  IC50 (µg/mL), pseudovirus neutralization: 0.492 µg/mL
[10]
  IC50 (µg/mL), pseudovirus neutralization: > 50 µg/mL
[11]
  IC50 (µg/mL), pseudovirus neutralization: 0.712 µg/mL
[12]
  IC50 (µg/mL), pseudovirus neutralization: 0.099 µg/mL
